Legend:
recombinant human TNFα [1] = molecular target: T1, recombinant human TNFα (human, UniProt P01375 77-233); test: cell-based or functional assay
recombinant human TNFα [2] = molecular target: T1, recombinant human TNFα; test: ELISA, recombinant human TNFα coated at 1 µg/mL, HRP anti-human secondary
Experimental: In this assay, 1 μg/mL recombinant human TNFα (R&D systems) was coated on an ELISA plate. Increasing concentrations of anti-TNFα shielded antibodies were applied on the plate and their binding to the recombinant human TNFα was detected by HRP-conjugated anti-human secondary antibody.

recombinant human TNFα [3] = molecular target: T1, recombinant human TNFα; test: ELISA on human TNFα

T1 sequence (P01375 77-233 limits assumed): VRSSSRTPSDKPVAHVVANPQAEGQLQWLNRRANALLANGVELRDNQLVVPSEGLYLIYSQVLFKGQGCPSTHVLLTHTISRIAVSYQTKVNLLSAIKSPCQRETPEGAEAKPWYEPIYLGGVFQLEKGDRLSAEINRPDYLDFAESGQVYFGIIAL

Row | Binder | HEK-Blue TNFα reporter assay: potency in blocking TNFα functional activity, fold lower than TAVO167127 (recombinant human TNFα [1]) [fold] | fold lower binding affinity than TAVO167127 (recombinant human TNFα [2]) [fold] | binding result (recombinant human TNFα [3]) | binding result (recombinant human TNFα [2])
1 | TAVO192193 (antibody, human IgG1, kappa, Undigested; also called anti-TNFα shielded antibody with IGF2-based masking domain; EAC192/EAC193) heavy: GIVEECCFRSCDLALLETYCAGGGGSIPVSLRSGGGGGSEVQLVESGGGLVQPGGSLRLSCAASGFDFADYAMHWVRQAPGKGLEWVSAITWNGGHTDYADSVKGRFTISRDNSKNTLYLQMNSLRAEDTAVYYCAKVSYLSTASSLDYWGQGTLVTVSSASTKGPSVFPLAPSSKSTSGGTAALGCLVKDYFPEPVTVSWNSGALTSGVHTFPAVLQSSGLYSLSSVVTVPSSSLGTQTYICNVNHKPSNTKVDKKVEPKSCDKTHTCPPCPAPPAAGPSVFLFPPKPKDTLMISRTPEVTCVVVDVSHEDPEVKFNWYVDGVEVHNAKTKPREEQYNSTYRVVSVLTVLHQDWLNGKEYKCKVSNKALPAPIEKTISKAKGQPREPQVYTLPPSRDELTKNQVSLTCLVKGFYPSDIAVEWESNGQPENNYKTTPPVLDSDGSFLLYSKLTVDKSRWQQGNVFSCSVLHEALHSHYTQKSLSLSPGK light: not shown | ~50 | ≥ 5 | – | –
2 | TAVO198199 (antibody, human IgG1, kappa, also called anti-TNFα shielded antibody with IGF2-based masking domain; EAC198/EAC199) heavy: GIVEECCFRSCDLALLETYCAGGGGSLSGRSDNHGGGGSEVQLVESGGGLVQPGGSLRLSCAASGFDFADYAMHWVRQAPGKGLEWVSAITWNGGHTDYADSVKGRFTISRDNSKNTLYLQMNSLRAEDTAVYYCAKVSYLSTASSLDYWGQGTLVTVSSASTKGPSVFPLAPSSKSTSGGTAALGCLVKDYFPEPVTVSWNSGALTSGVHTFPAVLQSSGLYSLSSVVTVPSSSLGTQTYICNVNHKPSNTKVDKKVEPKSCDKTHTCPPCPAPPAAGPSVFLFPPKPKDTLMISRTPEVTCVVVDVSHEDPEVKFNWYVDGVEVHNAKTKPREEQYNSTYRVVSVLTVLHQDWLNGKEYKCKVSNKALPAPIEKTISKAKGQPREPQVYTLPPSRDELTKNQVSLTCLVKGFYPSDIAVEWESNGQPENNYKTTPPVLDSDGSFLLYSKLTVDKSRWQQGNVFSCSVLHEALHSHYTQKSLSLSPGK light: not shown | ~50 | ≥ 5 | – | –
3 | TAVO194195 (antibody, human IgG1, kappa, also called anti-TNFα shielded antibody with IGF2-based masking domain; EAC194/EAC195) heavy: GIVEECCFRSCDLALLETYCAGGGGSGPLGMLSQGGGGSEVQLVESGGGLVQPGGSLRLSCAASGFDFADYAMHWVRQAPGKGLEWVSAITWNGGHTDYADSVKGRFTISRDNSKNTLYLQMNSLRAEDTAVYYCAKVSYLSTASSLDYWGQGTLVTVSSASTKGPSVFPLAPSSKSTSGGTAALGCLVKDYFPEPVTVSWNSGALTSGVHTFPAVLQSSGLYSLSSVVTVPSSSLGTQTYICNVNHKPSNTKVDKKVEPKSCDKTHTCPPCPAPPAAGPSVFLFPPKPKDTLMISRTPEVTCVVVDVSHEDPEVKFNWYVDGVEVHNAKTKPREEQYNSTYRVVSVLTVLHQDWLNGKEYKCKVSNKALPAPIEKTISKAKGQPREPQVYTLPPSRDELTKNQVSLTCLVKGFYPSDIAVEWESNGQPENNYKTTPPVLDSDGSFLLYSKLTVDKSRWQQGNVFSCSVLHEALHSHYTQKSLSLSPGK light: not shown | ~50 | ≥ 5 | – | –
4 | TAVO196197 (antibody, human IgG1, kappa, Undigested; also called anti-TNFα shielded antibody with IGF2-based masking domain; EAC196/EAC197) heavy: GIVEECCFRSCDLALLETYCAGGGGSRPKPVEVWRKGGGGSEVQLVESGGGLVQPGGSLRLSCAASGFDFADYAMHWVRQAPGKGLEWVSAITWNGGHTDYADSVKGRFTISRDNSKNTLYLQMNSLRAEDTAVYYCAKVSYLSTASSLDYWGQGTLVTVSSASTKGPSVFPLAPSSKSTSGGTAALGCLVKDYFPEPVTVSWNSGALTSGVHTFPAVLQSSGLYSLSSVVTVPSSSLGTQTYICNVNHKPSNTKVDKKVEPKSCDKTHTCPPCPAPPAAGPSVFLFPPKPKDTLMISRTPEVTCVVVDVSHEDPEVKFNWYVDGVEVHNAKTKPREEQYNSTYRVVSVLTVLHQDWLNGKEYKCKVSNKALPAPIEKTISKAKGQPREPQVYTLPPSRDELTKNQVSLTCLVKGFYPSDIAVEWESNGQPENNYKTTPPVLDSDGSFLLYSKLTVDKSRWQQGNVFSCSVLHEALHSHYTQKSLSLSPGK light: not shown | ~50 | ≥ 5 | – | –
5 | TAVO580585 (antibody, human IgG1, kappa, Variant IGF2 mask; ADA-H2 / ADA-L2; also called EAC580/EAC585) heavy: GILEECCFRSCDLALLETYCAGGGGSPLGLAGGGGGSEVQLVESGGGLVQPGGSLRLSCAASGFTFDDYAMHWVRQAPGKGLEWVSAITWNSGHIDYADSVKGRFTISRDNSKNTLYLQMNSLRAEDTAVYYCAKVSYLSTASSLDYWGQGTLVTVSSASTKGPSVFPLAPSSKSTSGGTAALGCLVKDYFPEPVTVSWNSGALTSGVHTFPAVLQSSGLYSLSSVVTVPSSSLGTQTYICNVNHKPSNTKVDKKVEPKSCDKTHTCPPCPAPPAAGPSVFLFPPKPKDTLMISRTPEVTCVVVDVSHEDPEVKFNWYVDGVEVHNAKTKPREEQYNSTYRVVSVLTVLHQDWLNGKEYKCKVSNKALPAPIEKTISKAKGQPREPQVYTLPPSRDELTKNQVSLTCLVKGFYPSDIAVEWESNGQPENNYKTTPPVLDSDGSFLLYSKLTVDKSRWQQGNVFSCSVLHEALHSHYTQKSLSLSPGK light: AYRPSETLCGGELVDTLQFVCGDRGFAFGGGGSPLGLAGGGGGSDIVMTQSPDSLAVSLGERATINCRASQGIRNYLAWYQQKPGQAPKLLIYAASTLQSGVPDRFSGSGSGTDFTLTISSLQAEDVAVYYCQRYNRAPYTFGQGTKVEIKRTVAAPSVFIFPPSDEQLKSGTASVVCLLNNFYPREAKVQWKVDNALQSGNSQESVTEQDSKDSTYSLSSTLTLSKADYEKHKVYACEVTHQGLSSPVTKSFNRGEC | – | – | binds | –
6 | TAVO584585 (antibody, human IgG1, kappa, Variant IGF2 mask; ADA-H4X / ADA-L2; also called EAC584/EAC585) heavy: GILEECCFRSCDLALLETYCAGGGGSPLGLAGGGGGSQVQLVESGGGVVQPGGSLRLSCAASGFDFADYAMHWVRQAPGKGLEWVSAITWNGGHTDYADSVKGRFTISRDNSKNTLYLQMNSLRAEDTAVYYCAKVSYLSTASSLDYWGQGTLVTVSSASTKGPSVFPLAPSSKSTSGGTAALGCLVKDYFPEPVTVSWNSGALTSGVHTFPAVLQSSGLYSLSSVVTVPSSSLGTQTYICNVNHKPSNTKVDKKVEPKSCDKTHTCPPCPAPPAAGPSVFLFPPKPKDTLMISRTPEVTCVVVDVSHEDPEVKFNWYVDGVEVHNAKTKPREEQYNSTYRVVSVLTVLHQDWLNGKEYKCKVSNKALPAPIEKTISKAKGQPREPQVYTLPPSRDELTKNQVSLTCLVKGFYPSDIAVEWESNGQPENNYKTTPPVLDSDGSFLLYSKLTVDKSRWQQGNVFSCSVLHEALHSHYTQKSLSLSPGK light: AYRPSETLCGGELVDTLQFVCGDRGFAFGGGGSPLGLAGGGGGSDIVMTQSPDSLAVSLGERATINCRASQGIRNYLAWYQQKPGQAPKLLIYAASTLQSGVPDRFSGSGSGTDFTLTISSLQAEDVAVYYCQRYNRAPYTFGQGTKVEIKRTVAAPSVFIFPPSDEQLKSGTASVVCLLNNFYPREAKVQWKVDNALQSGNSQESVTEQDSKDSTYSLSSTLTLSKADYEKHKVYACEVTHQGLSSPVTKSFNRGEC | – | – | binds | –
7 | TAVO167127 (antibody, human IgG1, kappa, Control antibody, ADA-H2X / ADA-L1 variable domains, IgG1 Fc with E233P, L234A, L235A, F405L, M428L, N434S and G236 deleted; also called active anti-TNFα antibody without the IGF2-based masking domain; unmasked anti-TNFα antibody) heavy: EVQLVESGGGLVQPGGSLRLSCAASGFDFADYAMHWVRQAPGKGLEWVSAITWNGGHTDYADSVKGRFTISRDNSKNTLYLQMNSLRAEDTAVYYCAKVSYLSTASSLDYWGQGTLVTVSSASTKGPSVFPLAPSSKSTSGGTAALGCLVKDYFPEPVTVSWNSGALTSGVHTFPAVLQSSGLYSLSSVVTVPSSSLGTQTYICNVNHKPSNTKVDKKVEPKSCDKTHTCPPCPAPPAAGPSVFLFPPKPKDTLMISRTPEVTCVVVDVSHEDPEVKFNWYVDGVEVHNAKTKPREEQYNSTYRVVSVLTVLHQDWLNGKEYKCKVSNKALPAPIEKTISKAKGQPREPQVYTLPPSRDELTKNQVSLTCLVKGFYPSDIAVEWESNGQPENNYKTTPPVLDSDGSFLLYSKLTVDKSRWQQGNVFSCSVLHEALHSHYTQKSLSLSPGK light: not shown | – | – | – | binds
8 | TAVO186187 (antibody, human IgG1, kappa, Undigested; IGF2 A chain - MMP2/9 linker (GPLGVR) - heavy chain (ADA-H2X, IgG1 Fc mutant); IGF2 B chain - linker - light chain (ADA-L1); also called anti-TNFα shielded antibody with IGF2-based masking domain; EAC186/EAC187) heavy: GIVEECCFRSCDLALLETYCAGGGGSGPLGVRGGGGSEVQLVESGGGLVQPGGSLRLSCAASGFDFADYAMHWVRQAPGKGLEWVSAITWNGGHTDYADSVKGRFTISRDNSKNTLYLQMNSLRAEDTAVYYCAKVSYLSTASSLDYWGQGTLVTVSSASTKGPSVFPLAPSSKSTSGGTAALGCLVKDYFPEPVTVSWNSGALTSGVHTFPAVLQSSGLYSLSSVVTVPSSSLGTQTYICNVNHKPSNTKVDKKVEPKSCDKTHTCPPCPAPPAAGPSVFLFPPKPKDTLMISRTPEVTCVVVDVSHEDPEVKFNWYVDGVEVHNAKTKPREEQYNSTYRVVSVLTVLHQDWLNGKEYKCKVSNKALPAPIEKTISKAKGQPREPQVYTLPPSRDELTKNQVSLTCLVKGFYPSDIAVEWESNGQPENNYKTTPPVLDSDGSFLLYSKLTVDKSRWQQGNVFSCSVLHEALHSHYTQKSLSLSPGK light: not shown | ~50 | ≥ 5 | – | –
9 | TAVO190191 (antibody, human IgG1, kappa, Undigested; Native IGF2 A and B chains, MMP2/9 substrate PLGLAG; also called anti-TNFα shielded antibody with IGF2-based masking domain; EAC190/EAC191) heavy: GIVEECCFRSCDLALLETYCAGGGGSPLGLAGGGGGSEVQLVESGGGLVQPGGSLRLSCAASGFDFADYAMHWVRQAPGKGLEWVSAITWNGGHTDYADSVKGRFTISRDNSKNTLYLQMNSLRAEDTAVYYCAKVSYLSTASSLDYWGQGTLVTVSSASTKGPSVFPLAPSSKSTSGGTAALGCLVKDYFPEPVTVSWNSGALTSGVHTFPAVLQSSGLYSLSSVVTVPSSSLGTQTYICNVNHKPSNTKVDKKVEPKSCDKTHTCPPCPAPPAAGPSVFLFPPKPKDTLMISRTPEVTCVVVDVSHEDPEVKFNWYVDGVEVHNAKTKPREEQYNSTYRVVSVLTVLHQDWLNGKEYKCKVSNKALPAPIEKTISKAKGQPREPQVYTLPPSRDELTKNQVSLTCLVKGFYPSDIAVEWESNGQPENNYKTTPPVLDSDGSFLLYSKLTVDKSRWQQGNVFSCSVLHEALHSHYTQKSLSLSPGK light: not shown | ~50 | ≥ 5 | – | –
10 | TAVO188189 (antibody, human IgG1, kappa, Undigested; MMP2/9 substrate PLGLAR; also called anti-TNFα shielded antibody with IGF2-based masking domain; EAC188/EAC189) heavy: GIVEECCFRSCDLALLETYCAGGGGSPLGLARGGGGSEVQLVESGGGLVQPGGSLRLSCAASGFDFADYAMHWVRQAPGKGLEWVSAITWNGGHTDYADSVKGRFTISRDNSKNTLYLQMNSLRAEDTAVYYCAKVSYLSTASSLDYWGQGTLVTVSSASTKGPSVFPLAPSSKSTSGGTAALGCLVKDYFPEPVTVSWNSGALTSGVHTFPAVLQSSGLYSLSSVVTVPSSSLGTQTYICNVNHKPSNTKVDKKVEPKSCDKTHTCPPCPAPPAAGPSVFLFPPKPKDTLMISRTPEVTCVVVDVSHEDPEVKFNWYVDGVEVHNAKTKPREEQYNSTYRVVSVLTVLHQDWLNGKEYKCKVSNKALPAPIEKTISKAKGQPREPQVYTLPPSRDELTKNQVSLTCLVKGFYPSDIAVEWESNGQPENNYKTTPPVLDSDGSFLLYSKLTVDKSRWQQGNVFSCSVLHEALHSHYTQKSLSLSPGK light: not shown | ~50 | ≥ 5 | – | –

Reference: patent publication US20220119549A1 (TAVOTEK BIOTHERAPEUTICS HONG KONG, published 2022)
